Measured values taken from paper PMC8214733.

T1: sperm associated antigen 6 (SPAG6), full CDS fused to a proteinA-mCitrine tag, O75602
T1 chain: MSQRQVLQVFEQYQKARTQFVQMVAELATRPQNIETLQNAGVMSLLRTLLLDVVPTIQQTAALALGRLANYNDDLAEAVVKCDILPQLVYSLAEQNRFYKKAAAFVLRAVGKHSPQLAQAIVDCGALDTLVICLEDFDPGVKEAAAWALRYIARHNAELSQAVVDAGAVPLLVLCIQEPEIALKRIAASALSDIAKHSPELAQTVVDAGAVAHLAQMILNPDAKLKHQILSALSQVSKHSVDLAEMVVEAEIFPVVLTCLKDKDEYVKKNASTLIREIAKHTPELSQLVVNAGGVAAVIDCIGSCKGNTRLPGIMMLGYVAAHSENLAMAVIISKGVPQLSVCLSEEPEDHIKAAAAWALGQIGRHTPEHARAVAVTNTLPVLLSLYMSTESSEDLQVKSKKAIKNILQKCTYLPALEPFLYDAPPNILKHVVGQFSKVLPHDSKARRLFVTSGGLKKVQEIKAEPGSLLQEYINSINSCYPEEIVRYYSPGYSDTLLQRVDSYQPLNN


Columns and labels:
Experiment in all cases: BRET assay (LuTHy system)
[1] = molecular target: sperm associated antigen 6 (SPAG6), full CDS fused to a proteinA-mCitrine tag (UniProt O75602); settings: parent: est. 0.41; read off a plot
[2] = molecular target: C-terminal portion of DYNC1H1 (1000 AA) fused to a proteinA-mCitrine tag (UniProt Q14204); settings: parent: est. 0.52; read off a plot
[3] = molecular target: C-terminal portion of DYNC1H1 (1000 AA) fused to a proteinA-mCitrine tag, Q14204; settings: chain shown with the change;; parent: est. 0.52; read off a plot
[4] = molecular target: T1, sperm associated antigen 6 (SPAG6), …; settings: chain shown with the change;; parent: est. 0.41; read off a plot

Sequence of C-terminal portion of DYNC1H1 (1000 AA) fused to a proteinA-mCitrine tag, Q14204 (Q14204 whole entry, the tested form may be a part): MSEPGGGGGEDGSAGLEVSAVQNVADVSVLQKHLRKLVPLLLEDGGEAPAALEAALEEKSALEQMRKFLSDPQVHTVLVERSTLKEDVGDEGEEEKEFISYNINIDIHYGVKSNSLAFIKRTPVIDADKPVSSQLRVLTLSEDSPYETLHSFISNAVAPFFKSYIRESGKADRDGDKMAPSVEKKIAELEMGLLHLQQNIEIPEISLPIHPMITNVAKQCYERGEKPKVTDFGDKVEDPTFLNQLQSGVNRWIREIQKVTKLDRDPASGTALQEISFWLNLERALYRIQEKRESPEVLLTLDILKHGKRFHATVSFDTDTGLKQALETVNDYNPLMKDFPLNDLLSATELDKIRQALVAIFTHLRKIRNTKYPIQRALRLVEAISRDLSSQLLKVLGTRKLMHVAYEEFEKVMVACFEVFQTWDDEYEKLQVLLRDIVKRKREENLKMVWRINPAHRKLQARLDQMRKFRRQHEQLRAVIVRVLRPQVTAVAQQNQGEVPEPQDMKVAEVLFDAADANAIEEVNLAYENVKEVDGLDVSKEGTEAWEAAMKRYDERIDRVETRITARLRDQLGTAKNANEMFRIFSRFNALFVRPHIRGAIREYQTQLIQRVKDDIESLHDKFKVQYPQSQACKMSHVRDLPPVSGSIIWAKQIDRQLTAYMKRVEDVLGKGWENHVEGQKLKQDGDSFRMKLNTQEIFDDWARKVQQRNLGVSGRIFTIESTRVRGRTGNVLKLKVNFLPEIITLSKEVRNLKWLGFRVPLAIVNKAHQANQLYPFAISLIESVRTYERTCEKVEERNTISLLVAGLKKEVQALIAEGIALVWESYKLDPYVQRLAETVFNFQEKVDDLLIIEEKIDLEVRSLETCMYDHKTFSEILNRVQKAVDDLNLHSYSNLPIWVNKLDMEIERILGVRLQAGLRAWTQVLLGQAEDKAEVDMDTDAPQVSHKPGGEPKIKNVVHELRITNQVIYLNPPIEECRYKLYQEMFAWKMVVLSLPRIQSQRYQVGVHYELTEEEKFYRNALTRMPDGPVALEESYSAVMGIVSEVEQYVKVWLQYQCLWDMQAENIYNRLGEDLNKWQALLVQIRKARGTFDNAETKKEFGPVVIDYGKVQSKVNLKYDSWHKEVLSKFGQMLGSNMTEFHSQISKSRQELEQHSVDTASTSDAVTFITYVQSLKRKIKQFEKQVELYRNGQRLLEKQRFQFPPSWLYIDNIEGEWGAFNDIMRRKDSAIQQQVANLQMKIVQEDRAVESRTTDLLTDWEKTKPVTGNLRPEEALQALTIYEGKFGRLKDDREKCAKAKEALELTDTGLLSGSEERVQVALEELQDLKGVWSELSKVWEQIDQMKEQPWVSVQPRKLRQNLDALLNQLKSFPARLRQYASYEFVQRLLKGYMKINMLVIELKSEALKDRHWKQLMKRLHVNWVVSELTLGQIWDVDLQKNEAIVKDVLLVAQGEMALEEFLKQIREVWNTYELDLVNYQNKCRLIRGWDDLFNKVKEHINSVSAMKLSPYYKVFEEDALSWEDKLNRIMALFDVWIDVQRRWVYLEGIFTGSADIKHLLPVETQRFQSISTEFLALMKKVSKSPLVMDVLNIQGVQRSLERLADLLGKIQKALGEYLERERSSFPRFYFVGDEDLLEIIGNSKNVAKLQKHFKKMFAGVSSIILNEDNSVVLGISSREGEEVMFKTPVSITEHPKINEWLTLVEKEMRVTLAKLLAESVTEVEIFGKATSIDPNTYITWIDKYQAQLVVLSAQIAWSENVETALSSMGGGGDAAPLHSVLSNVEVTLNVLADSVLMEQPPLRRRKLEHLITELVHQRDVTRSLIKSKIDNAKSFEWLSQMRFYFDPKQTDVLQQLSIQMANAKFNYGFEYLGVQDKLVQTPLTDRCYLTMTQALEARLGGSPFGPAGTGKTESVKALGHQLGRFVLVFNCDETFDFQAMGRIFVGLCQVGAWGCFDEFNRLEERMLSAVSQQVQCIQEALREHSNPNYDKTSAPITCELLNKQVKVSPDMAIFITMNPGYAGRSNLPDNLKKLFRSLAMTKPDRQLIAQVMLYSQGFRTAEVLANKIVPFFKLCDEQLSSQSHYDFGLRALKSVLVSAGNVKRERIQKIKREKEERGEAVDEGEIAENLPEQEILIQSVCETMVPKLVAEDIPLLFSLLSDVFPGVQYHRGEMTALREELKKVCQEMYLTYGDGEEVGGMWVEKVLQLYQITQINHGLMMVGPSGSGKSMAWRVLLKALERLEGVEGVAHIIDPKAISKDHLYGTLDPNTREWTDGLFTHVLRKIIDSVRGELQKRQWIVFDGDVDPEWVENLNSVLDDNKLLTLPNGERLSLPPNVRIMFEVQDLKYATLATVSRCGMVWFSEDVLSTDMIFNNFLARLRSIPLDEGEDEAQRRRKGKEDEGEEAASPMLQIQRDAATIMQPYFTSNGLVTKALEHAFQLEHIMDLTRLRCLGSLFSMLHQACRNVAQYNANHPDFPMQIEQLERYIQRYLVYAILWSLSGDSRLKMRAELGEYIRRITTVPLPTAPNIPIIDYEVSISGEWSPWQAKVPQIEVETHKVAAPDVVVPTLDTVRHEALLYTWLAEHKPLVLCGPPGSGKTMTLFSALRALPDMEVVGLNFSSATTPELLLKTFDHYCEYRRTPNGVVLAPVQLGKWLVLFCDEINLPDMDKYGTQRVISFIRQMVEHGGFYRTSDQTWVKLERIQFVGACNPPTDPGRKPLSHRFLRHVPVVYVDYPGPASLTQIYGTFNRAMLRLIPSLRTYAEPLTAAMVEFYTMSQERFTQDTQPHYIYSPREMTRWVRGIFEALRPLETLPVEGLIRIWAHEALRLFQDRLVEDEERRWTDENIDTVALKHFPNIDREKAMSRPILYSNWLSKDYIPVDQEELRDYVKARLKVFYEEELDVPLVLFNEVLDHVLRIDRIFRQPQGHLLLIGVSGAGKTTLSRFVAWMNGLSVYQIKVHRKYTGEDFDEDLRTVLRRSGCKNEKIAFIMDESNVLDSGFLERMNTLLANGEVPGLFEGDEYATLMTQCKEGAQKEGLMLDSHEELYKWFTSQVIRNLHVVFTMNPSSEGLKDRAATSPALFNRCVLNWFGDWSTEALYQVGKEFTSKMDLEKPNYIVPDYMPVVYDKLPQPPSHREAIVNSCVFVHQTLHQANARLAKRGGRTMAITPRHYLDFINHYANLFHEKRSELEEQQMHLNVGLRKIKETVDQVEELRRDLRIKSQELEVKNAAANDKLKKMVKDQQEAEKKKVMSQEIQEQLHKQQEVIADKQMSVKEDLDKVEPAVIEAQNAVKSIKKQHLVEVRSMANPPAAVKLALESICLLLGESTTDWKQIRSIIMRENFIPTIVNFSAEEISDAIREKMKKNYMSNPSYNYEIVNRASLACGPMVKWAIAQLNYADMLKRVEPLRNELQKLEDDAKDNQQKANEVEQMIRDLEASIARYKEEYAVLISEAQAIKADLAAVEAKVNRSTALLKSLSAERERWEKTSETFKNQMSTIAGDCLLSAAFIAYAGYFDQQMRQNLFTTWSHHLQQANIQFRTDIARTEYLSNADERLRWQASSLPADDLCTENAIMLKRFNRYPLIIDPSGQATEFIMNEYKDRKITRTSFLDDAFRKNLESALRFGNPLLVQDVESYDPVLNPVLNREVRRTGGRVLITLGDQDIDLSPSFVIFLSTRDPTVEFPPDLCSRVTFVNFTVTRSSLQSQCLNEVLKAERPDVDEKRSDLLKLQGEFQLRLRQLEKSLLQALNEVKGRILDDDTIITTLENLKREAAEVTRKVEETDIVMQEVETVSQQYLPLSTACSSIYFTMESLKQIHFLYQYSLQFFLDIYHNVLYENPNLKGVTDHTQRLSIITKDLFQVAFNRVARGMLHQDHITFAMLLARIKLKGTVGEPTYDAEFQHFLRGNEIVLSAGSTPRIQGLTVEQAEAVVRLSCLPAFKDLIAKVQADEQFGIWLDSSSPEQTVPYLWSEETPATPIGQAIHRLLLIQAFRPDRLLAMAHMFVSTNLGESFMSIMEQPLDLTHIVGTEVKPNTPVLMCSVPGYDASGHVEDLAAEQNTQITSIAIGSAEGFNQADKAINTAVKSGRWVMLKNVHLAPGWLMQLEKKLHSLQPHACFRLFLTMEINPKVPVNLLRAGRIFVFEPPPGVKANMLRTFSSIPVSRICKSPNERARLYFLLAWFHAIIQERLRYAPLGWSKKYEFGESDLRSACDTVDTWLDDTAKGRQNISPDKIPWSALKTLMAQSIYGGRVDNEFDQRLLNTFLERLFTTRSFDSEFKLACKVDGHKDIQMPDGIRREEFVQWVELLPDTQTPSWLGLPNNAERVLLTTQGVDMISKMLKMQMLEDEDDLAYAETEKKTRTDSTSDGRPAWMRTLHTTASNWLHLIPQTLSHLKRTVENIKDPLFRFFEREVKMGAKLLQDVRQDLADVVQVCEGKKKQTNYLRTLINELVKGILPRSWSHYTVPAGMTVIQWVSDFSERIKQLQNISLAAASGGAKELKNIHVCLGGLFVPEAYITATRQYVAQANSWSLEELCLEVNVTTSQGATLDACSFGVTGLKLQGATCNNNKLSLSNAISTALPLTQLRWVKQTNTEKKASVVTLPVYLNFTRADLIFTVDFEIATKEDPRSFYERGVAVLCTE

response [1] | response [2] | response [3] | response [4] | Molecule
0.33 | 0.55 |  |  | coiled-coil domain-containing protein 103 (CCDC103), full-length coding sequence fused to a Nano-luciferase (NL)-Myc tag (from UniProt Q8IW40) p.Ala11Pro
 |  | 0.38 | 0.22 | coiled-coil domain-containing protein 103 (CCDC103), full-length coding sequence fused to a Nano-luciferase (NL)-Myc tag, Q8IW40 p.His154Pro (protein) MERNDIINFKALEKELQAALTADEKYKRENAAKLRAVEQRVASYEEFRGIVLASHLKPLERKDKMGGKRTVPWNCHTIQGRTFQDVATEISPEKAPLQPETSADFYRDWRRHLPSGPERYQALLQLGGPRLGCLFQTDVGFGLLGELLVALADPVGPADRAAVLGILCSLASTGRFTLNLSLLSRAERESCKGLFQKLQAMGNPRSVKEGLSWEEQGLEEQSGGLQEEERLLQELLELYQVD
